In patent US7049400:

Biological target: MD9 (mammalian version of D9 mutant, EGFP-DEVD) (Aequorea victoria (Water jellyfish) (Mesonema victoria)) [GFP: P42212]
Assay: cell-based or functional assay

- decrease in relative fluorescence intensity of mutant GFP in comparison to wild type GFP: 50%
Substance: activated caspase-3 in HeLa cells induced to apoptosis by TNFα and cycloheximide (from UniProt P42574 29-277) (enzyme)
